Assay results published in patent publication US20190085097A1 (published 2019).

Tests used:
mouse plasminogen = molecular target: T1, mouse plasminogen (mouse, UniProt P20918 20-812); assay: ELISA, antigen coated at 10 ug/ml, antibody supernatant, compared with anti-digoxin control
T1 construct: also called mouse (m) Pg
Description: (§1) Then goat anti mouse antibody conjugated with HRP (1:5000, Sc-2005, Santa Cruz) was then added. The plate was washed after incubation for 1 h. TMB was added to the wells and absorbance at 370nm was recorded.

bovine serum albumin = molecular target: T2, bovine serum albumin (bovine, UniProt P02769 25-607); assay: as above
T2 construct: also called BSA
T2 sequence (P02769 25-607 limits assumed): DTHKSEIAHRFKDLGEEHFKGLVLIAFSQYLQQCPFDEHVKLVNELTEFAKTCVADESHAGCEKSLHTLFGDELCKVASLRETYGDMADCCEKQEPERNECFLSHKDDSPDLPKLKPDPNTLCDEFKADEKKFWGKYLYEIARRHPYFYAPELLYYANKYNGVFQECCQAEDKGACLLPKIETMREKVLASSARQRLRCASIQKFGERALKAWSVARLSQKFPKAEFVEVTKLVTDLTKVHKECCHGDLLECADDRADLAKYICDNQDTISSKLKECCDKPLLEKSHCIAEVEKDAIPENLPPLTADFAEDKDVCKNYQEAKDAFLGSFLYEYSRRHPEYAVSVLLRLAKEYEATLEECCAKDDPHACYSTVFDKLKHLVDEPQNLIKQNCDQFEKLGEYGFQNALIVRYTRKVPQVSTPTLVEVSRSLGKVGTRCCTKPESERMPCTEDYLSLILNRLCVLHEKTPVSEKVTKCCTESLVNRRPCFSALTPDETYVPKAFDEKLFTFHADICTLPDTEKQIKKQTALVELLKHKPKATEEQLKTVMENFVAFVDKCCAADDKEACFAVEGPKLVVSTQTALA
Description: as §1

human tPA = human tPA (human, UniProt P00750 36-562); assay: as above
Chain of human tPA (P00750 36-562 limits assumed): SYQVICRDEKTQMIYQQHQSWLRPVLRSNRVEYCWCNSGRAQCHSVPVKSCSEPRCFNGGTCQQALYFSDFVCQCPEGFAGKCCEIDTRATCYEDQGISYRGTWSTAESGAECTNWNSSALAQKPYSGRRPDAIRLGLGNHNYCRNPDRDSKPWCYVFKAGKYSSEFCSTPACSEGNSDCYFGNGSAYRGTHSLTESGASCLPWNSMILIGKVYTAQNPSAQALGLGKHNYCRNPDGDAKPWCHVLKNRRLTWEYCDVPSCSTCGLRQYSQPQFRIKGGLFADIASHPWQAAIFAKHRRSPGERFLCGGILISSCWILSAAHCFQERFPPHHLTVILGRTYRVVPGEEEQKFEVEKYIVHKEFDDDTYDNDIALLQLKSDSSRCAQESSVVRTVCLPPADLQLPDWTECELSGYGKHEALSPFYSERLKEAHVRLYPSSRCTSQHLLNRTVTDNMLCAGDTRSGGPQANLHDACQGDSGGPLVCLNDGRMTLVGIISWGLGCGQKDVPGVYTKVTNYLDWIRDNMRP
Description: as §1

human plasminogen = molecular target: T3, human plasminogen (human, UniProt P00747 20-810); assay: saturation binding ELISA, human plasminogen coated at 2 ug/ml, one-site hyperbola fit
T3 construct: also called h Pg
T3 sequence (P00747 20-810 limits assumed): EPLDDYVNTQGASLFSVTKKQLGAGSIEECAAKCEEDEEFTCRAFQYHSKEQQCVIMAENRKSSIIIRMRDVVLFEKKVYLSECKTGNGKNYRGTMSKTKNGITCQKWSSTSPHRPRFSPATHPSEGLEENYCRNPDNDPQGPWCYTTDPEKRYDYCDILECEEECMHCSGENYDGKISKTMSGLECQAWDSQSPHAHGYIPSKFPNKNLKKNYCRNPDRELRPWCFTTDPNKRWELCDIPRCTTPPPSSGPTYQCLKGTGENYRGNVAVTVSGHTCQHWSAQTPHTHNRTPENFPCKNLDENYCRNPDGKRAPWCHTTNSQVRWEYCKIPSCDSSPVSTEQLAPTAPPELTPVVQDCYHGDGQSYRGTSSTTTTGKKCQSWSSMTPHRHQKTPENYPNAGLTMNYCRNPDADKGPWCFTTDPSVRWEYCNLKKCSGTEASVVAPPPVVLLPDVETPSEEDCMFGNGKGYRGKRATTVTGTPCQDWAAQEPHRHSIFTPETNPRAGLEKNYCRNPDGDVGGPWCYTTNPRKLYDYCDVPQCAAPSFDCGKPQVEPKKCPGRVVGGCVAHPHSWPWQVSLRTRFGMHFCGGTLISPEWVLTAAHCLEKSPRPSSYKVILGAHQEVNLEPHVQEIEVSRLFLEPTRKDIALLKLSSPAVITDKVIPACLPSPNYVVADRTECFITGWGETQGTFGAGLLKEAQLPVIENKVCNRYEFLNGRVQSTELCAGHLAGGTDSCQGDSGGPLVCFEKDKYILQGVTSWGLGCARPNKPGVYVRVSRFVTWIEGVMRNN
Description: Saturation binding assay. Saturation binding assays were performed by ELISA in 96-well plates coated with 2 ug/ml of plasmin or plasminogen at room temperature for 1 hour. Wells were washed with PBS-T: (10 mM phosphate buffer pH 7.4, 150 mM NaCl, 0.05% Tween 20) six times. Non-specific protein binding sites were blocked with 1% BSA for 1 hour at room temperature. After washing the plate as above, various concentrations of antibody (0.002 to 100 ug/ml) were added to the plate in duplicate and for 1 hour at room temperature. The plate was washed and horseradish peroxidase (HRP) conjugated goat anti-mouse secondary antibody (1:8000, Santa Cruz, Dallas, Tex.) was added to the plate. After 1 hour incubation at room temperature, the plate was washed and TMB was added. The absorbance was then read at 370 nm.

human plasmin = human plasmin (human, UniProt P00747 97-810, limits assumed); assay: cell-based or functional assay
Chain of human plasmin (P00747 97-810 limits assumed): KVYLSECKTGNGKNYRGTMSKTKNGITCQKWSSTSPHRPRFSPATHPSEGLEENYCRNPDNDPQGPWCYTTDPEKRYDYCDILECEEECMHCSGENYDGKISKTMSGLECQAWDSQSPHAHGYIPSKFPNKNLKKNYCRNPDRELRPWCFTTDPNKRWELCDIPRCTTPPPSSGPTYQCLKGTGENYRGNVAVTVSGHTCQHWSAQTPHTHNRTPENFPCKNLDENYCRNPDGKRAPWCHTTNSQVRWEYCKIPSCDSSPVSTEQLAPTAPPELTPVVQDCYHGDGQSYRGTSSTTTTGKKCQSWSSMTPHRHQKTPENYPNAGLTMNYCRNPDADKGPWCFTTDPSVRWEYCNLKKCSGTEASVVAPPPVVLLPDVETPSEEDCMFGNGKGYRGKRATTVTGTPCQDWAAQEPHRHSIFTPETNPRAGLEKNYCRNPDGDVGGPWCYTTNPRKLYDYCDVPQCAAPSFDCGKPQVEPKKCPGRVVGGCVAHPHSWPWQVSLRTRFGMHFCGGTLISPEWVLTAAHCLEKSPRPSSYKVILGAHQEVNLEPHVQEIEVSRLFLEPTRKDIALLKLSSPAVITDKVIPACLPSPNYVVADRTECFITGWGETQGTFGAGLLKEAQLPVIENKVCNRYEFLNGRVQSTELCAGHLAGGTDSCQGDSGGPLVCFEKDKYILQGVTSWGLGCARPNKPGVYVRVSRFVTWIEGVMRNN

T1 sequence (P20918 20-812 limits assumed): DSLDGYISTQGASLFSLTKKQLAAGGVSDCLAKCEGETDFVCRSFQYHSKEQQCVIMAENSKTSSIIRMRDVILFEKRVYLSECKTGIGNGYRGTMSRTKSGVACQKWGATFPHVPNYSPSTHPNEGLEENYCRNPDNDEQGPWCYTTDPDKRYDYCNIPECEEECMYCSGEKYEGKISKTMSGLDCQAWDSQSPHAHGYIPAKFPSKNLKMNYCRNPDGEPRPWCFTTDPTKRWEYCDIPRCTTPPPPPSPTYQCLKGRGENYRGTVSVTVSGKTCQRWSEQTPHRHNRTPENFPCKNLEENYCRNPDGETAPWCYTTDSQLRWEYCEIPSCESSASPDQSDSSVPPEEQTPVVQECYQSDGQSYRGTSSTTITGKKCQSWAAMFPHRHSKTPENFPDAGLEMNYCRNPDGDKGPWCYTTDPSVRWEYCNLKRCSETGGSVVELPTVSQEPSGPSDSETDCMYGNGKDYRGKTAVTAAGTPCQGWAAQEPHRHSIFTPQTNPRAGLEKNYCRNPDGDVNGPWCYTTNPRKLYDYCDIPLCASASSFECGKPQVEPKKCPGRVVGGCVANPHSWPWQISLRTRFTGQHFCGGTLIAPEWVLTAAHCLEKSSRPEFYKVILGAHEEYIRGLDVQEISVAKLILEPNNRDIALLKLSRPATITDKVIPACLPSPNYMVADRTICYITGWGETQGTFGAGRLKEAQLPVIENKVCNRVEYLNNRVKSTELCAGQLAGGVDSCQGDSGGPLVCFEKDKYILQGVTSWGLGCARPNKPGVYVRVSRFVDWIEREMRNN

B1: monoclonal antibody plasmin inhibitor (Pi) (antibody, mouse IgG1, kappa, V domains shown)
VH: EVKLLESGGGLVQPGGSLKLSCAASGFDFSRYWMSWVRQAPGKGLEWIGEINPDSSTINYTPSLKDKFIISRDNAKNSLYLQMSKVRSEDTALYYCASYCGYSYDALDCWGQGTSVTVSS
VL: DIQMTQSPSSLSASLGGKVSITCKASQDINKYISWYQHKPGKGPRLLIHYTSTLQPGIPSRFSGSGSGRDYSFSISNLEPEDIATYYCLQYDNLYTFGGGTKLEIKR
notes: Mouse hybridoma IgG purified from supernatant; also called Pi IgG; Pi MAb38
Mouse plasminogen
  binding result: no binding
Bovine serum albumin
  binding result: no binding
Human tPA
  binding result: no binding
Human plasminogen
  Kd: 3.4 nM
Human plasmin
  plasmin-mediated fibrinolysis of human fibrin clots (125I-fibrin release, tPA): ~5000 fold more potent than EACA
